This is an account of results in patent publication US20260265316A1, “IMMUNOTHERAPEUTIC METHODS, COMPOUNDS, AND COMPOSITIONS FOR TREATING OR PREVENTING CELIAC DISEASE” (DBV Technologies, priority 2023, published 2026).

The procedure of series [1]:
Freeze-dried aliquots of the three gliadin polypeptide constructs Cv6, Av6, and 4K, as well as the four building blocks BB1, BB2a, BB3a, and BB4a were reconstituted in pure water, loaded on a PET-Ti backing film and dried in an oven (at ~30° C.). Immediately after drying, dry deposits were reconstituted at five different molarities (approximately 1.8, 0.91, 0.45, 0.091 or 0.045 mM) by pipetting up and down with either pure water (A), PBS 1× (B), or artificial perspiration (C). The concentration in soluble material was measured by HPLC at 215 nm from the solutions recovered from PET-Ti backing films. Data are median+interquartile range of the different molarities tested. Data are expressed as the percentage of soluble material recovered, based on the expected concentration (all values above 100% were set to 100).
Immediately after drying, dry deposits were reconstituted at five different concentrations (20, 10, 5, 1 and 0.5 mg/mL) by pipetting up and down with either pure water (A), PBS 1× (B), or artificial perspiration (C). The concentration in soluble material was measured by HPLC at 215 nm from the solutions recovered from PET-Ti backing films. Data are presented as median+interquartile range of the different molarities tested. Data are expressed as the percentage of soluble material recovered, based on the expected concentration (all values above 100% were set to 100). (D) As an illustration, photographs of the reconstitution of dry deposits with pure water are shown and annotated.
Immediately after drying, deposits were reconstituted by pipetting up and down with each of pure water, PBS 1× at pH 7.0, and artificial perspiration at pH 4.5, each at five different molarities (approximately 1.8, 0.91, 0.45, 0.091, and 0.045 mM). The concentration in soluble material was measured by HPLC at 215 nm.
Immediately after drying, patch deposits were reconstituted by pipetting up and down with each of pure water, PBS 1× at pH 7.0, and artificial perspiration at pH 4.5, at five different concentrations (20, 10, 5, 1, and 0.5 mg/mL). The concentration in soluble material was measured by HPLC at 215 nm.

Series [2] is classed as physicochemical. The conditions noted are these: for precipitate in solution: pure water, PBS 1×, artificial perspiration, room temperature and 32° C., 24 hours. The source says: Dimerization appeared to be faster in artificial perspiration and at higher concentration.
Series [3] has as its system 3072 1.26 (DQ2.5-glia-α1a specific) T cell clone. The series can be described thus: IFN-γ ELISpot T cell clone assay. It counts as cell-based, human. The conditions noted are these: 10 μM, 3072 1.26 clone.
Series [4] relates to 3007.28 (DQ2.5-glia-α2 specific) T cell clone. The series can be described thus: IFN-γ ELISpot T cell clone assay. It counts as cell-based, human. The conditions noted are these: 10 μM, 3007.28 clone.
The subject of series [5] is 0482 1.2 clone (DQ8-glia-α-specific). The series can be described thus: IFN-γ ELISpot T cell clone assay. The class given is cell-based, human. The conditions noted are these: 10 μM. The procedure: (§1) FIGS. 12A-12E are graphs depicting the evaluation of the ability of gliadin polypeptides (Cv6, Av6, and 4K) to reactivate gluten-specific T cell clones isolated from CeD patients and specific for a selection of key gliadin epitopes (i.e., DQ2.5-glia-α1a (A), DQ2.5-glia-α2 (B), DQ2.5-glia-ω1 […], DQ2.5-glia-ω2 (D), and DQ8-glia-α1 […]), by IFN-γ ELISpot assay. The three gliadin polypeptide constructs Cv6, Av6, and 4K were incubated overnight at three different molarities ([…]) with irradiated PBMCs, and five T-cell clones originally isolated from HLA-DQ2^+ or HLA-DQ8^+ CeD patients. T cells clones were specific for either DQ2.5-glia-α1a (A), DQ2.5-glia-α2 (B), DQ2.5-glia-ω1 (C), DQ2.5-glia-ω2 (D) or DQ8-glia-α1 (E) epitopes. Spots were detected with IFN-γ-biotinylated antibody and streptavidin-ALP complex and counted using an AID ELISpot reader. Data are expressed as mean Spot Forming Units (SFU) per well of 3 replicate wells+SD.
(§2) For that purpose, five individual CD4^+ T cell clones specific for a selection of key gliadin epitopes have been used. The experimental readout was the enumeration of IFN-γ producing T-cells (Th1 cells) by ELISpot, as previously described: Hardy M Y, et al., J Autoimmun 2015; 56:56-65; Anderson et al., Clinical & Experimental Immunology, 2021, Issue 3, June 2021, Pages 321-334, the entire contents of each of which are incorporated by reference herein.
(§3) For this in vitro assay, irradiated peripheral blood mononuclear cells (PBMCs) isolated from the blood of healthy donors matching for HLA-DQ2.5 or HLA-DQ8 were used as a source of APCs.
(§4) As a positive control for antigen-specific T cell stimulation, the cognate gliadin-derived immunogenic peptide known to activate each CD4^+ T cell clone was used, as described in the literature (Sollid et al., Immunogenetics, 2020 February; 72(1-2):85-88; Tye-Din et al., Sci Transl Med, 2010, Vol. 2, Issue 41, 41-51, the entire contents of each of which are incorporated by reference herein). Negative controls consisted of cells treated with a cocktail of four irrelevant peptides of the following sequence: PFPLPQP (SEQ ID NO:87), PQYQPEQ (SEQ ID NO:88), PFEPQPL (SEQ ID NO:89), and PQSYPEQ (SEQ ID NO:90).

The test system of series [6] is 3177 2.27 (DQ2.5-glia-ω1 specific) T cell clone. The series can be described thus: IFN-γ ELISpot T cell clone assay. It counts as cell-based, human. The conditions noted are these: 10 μM, 3177 2.27 clone. The procedure: as §1, §2, §3, §4
Series [7] deals with 0177 2.61 (DQ2.5-glia-ω2 specific) T cell clone. The series can be described thus: IFN-γ ELISpot T cell clone assay. The conditions noted are these: 10 μM, 0177 2.61 clone. It counts as cell-based, human.

Consider H-PQPEQPEQPFPEQPQ-NH2 [BB2a], for which the “median percentage of soluble material recovered from the patch backing film” value in series [1] was “above 80%”.
Still for that read-out and setting: then H-PSGEGSFQPSQENPQ-NH2 [BB4a], with “above 80%”.

B1: QLQPFPQPELPYPQPELPYPQPELPYPQPQPKKKKPQPEQPEQPFPEQPQKKKKPQQPFPQPEQPFPWQPQKKKKPSGEGSFQPSQENPQ (peptide)
chain: QLQPFPQPELPYPQPELPYPQPELPYPQPQPKKKKPQPEQPEQPFPEQPQKKKKPQQPFPQPEQPFPWQPQKKKKPSGEGSFQPSQENPQ
As to B1, in series [2], the precipitate in solution result is recorded as “no precipitate was observed”. Also, the “mean spot forming units (IFN-γ ELISpot)” value in series [3] was 177; in series [4], 109; in series [5], 175; in series [6] it was 14; in series [7], 11.

B2: QLQPFPQPELPYPQPELPYPQPELPYPQPQPGPRRKKPQPEQPEQPFPEQPQGARRKKPQQPFPQPEQPFPWQPQGPKKPSGEGSFQPSQENPQ (peptide)
chain: QLQPFPQPELPYPQPELPYPQPELPYPQPQPGPRRKKPQPEQPEQPFPEQPQGARRKKPQQPFPQPEQPFPWQPQGPKKPSGEGSFQPSQENPQ
For B2, in series [2], the precipitate in solution entry is “no precipitate was observed”. Besides, the “mean spot forming units (IFN-γ ELISpot)” value in series [3] is reported as 183; in series [4] it was 122; in series [5], 201; in series [6] it was 21; in series [7], 12.

B3: QLQPFPQPELPYPQPELPYPQPELPYPQPQPGPRRKKPQPEQPEQPFPEQPQGCRRKKPQQPFPQPEQPFPWQPQGPKKPSGEGSFQPSQENPQ (peptide)
chain: QLQPFPQPELPYPQPELPYPQPELPYPQPQPGPRRKKPQPEQPEQPFPEQPQGCRRKKPQQPFPQPEQPFPWQPQGPKKPSGEGSFQPSQENPQ
Take B3: in series [2] (faster in artificial perspiration and at higher concentration), the “dimer formation in solution (HPLC and LC-MS)” value is on record as “forms some dimers in solution”. The “mean spot forming units (IFN-γ ELISpot)” value in series [3] was 159; in series [4], 117; in series [5] it was 173; in series [6], 15; in series [7] it was 16.
